Assay results as given in patent publication US20230212319A1, “NOVEL ANTIGEN BINDING DOMAINS AND SYNTHETIC ANTIGEN RECEPTORS INCORPORATING THE SAME” (University of Southern California, priority 2020, published 2023).

Experiments:
Type in all cases: cell-based
RAJI cells = assay: JNG assay, co-culture with RAJI cells
In short: (§1)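 Jurkat NFAT-GFP (JNG) cells stably transduced with SARs by lentivirus, with drug selection where the construct carried a resistance gene, then co-cultured with target cells at E:T ~1:2 for ~4–18 h. % GFP-positive cells measured by FACS against parental JNG; +/- to 5+ correspond to ~5–50% GFP-positive.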

RAJI-CD19-KO cells = assay: JNG assay, co-culture with RAJI-CD19-KO cells; settings: for NFAT-GFP ASSAY: Raji-CD19-KO: co-culture with Raji-CD19-KO
Method: Cellular supernatant is collected and assayed for the induction of cytokines (e.g., IL2).
JNG (Jurkat cells expressing EGFP under an NFAT promoter) were infected with lentiviral vectors encoding different single chain and multi-chain SARs by spinfection in the presence of 8 µg/ml of Polybrene® (Sigma, Catalog no. H9268). The Jurkat-NFAT-GFP cells are engineered in such a way that the IL-2 promoter, which carries NFAT binding sites, is cloned upstream of the GFP gene. These cells have been used to study signaling via TCR and CAR. The different SARs were stably expressed in Jurkat NFAT-GFP cells by lentiviral mediated gene transfer, followed by selection with puromycin or blasticidin. No drug selection was used in case the construct lacked an antibiotic resistance gene. The SAR-expressing Jurkat-NFAT-GFP cells were cocultured with the target cells at E:T ratio of approximately 1:2 for approximately 4 hours to 18 hours. When the interaction between SIRs and their target antigen results in activation of the NFAT pathway, GFP expression is induced. […] GFP expression was monitored by FACS analysis. The Jurkat-NFAT-GFP (parental) cells were used as control. The structure of different constructs can be determined based on their names. […] The sequence of the other constructs in the table can be similarly determined from their names and by referring to the different Tables of this disclosure that provide the names and SEQ ID NO of the different modules. Alternatively, the composition and modular architecture of the different SAR constructs can be determined from their sequences by bioinformatics tools, including using nucleic acid and amino acids homology searches. A SAR is considered positive in the assay in case the SAR expressing Jurkat-NFAT-GFP cells show greater % GFP positive cells when cultured with the target cell line as compared to parental Jurkat-NFAT-GFP cells. […] In general, the number +/-, +, 2+, 3+, 4+, 5+ refer to approximately 5%, 10%, 20%, 30%, 40% and 50% GFP positive cells. The % of GFP induction in the above assay is dependent not only the relative strength of the SAR but also, among other factors, on the relative level of expression of the SAR in the JNG cells and the relative level of expression of the target antigen in the target cell line. To control for the difference in gene transduction efficiency of the different SAR constructs, the experiment was conducted with JNG cells transduced with SAR constructs co-expressing a drug resistance gene (e.g., puromycin or PAC) followed by drug selection to generate a stable population of SAR-expressing cells. It is to be noted that the drug resistance gene (e.g., PAC) in the SAR constructs is optional and in vivo studies were conducted with SAR constructs lacking the PAC gene.

L363 cells = assay: JNG assay, co-culture with L363 cells
In short: as §1

Nalm6 cells = assay: JNG assay, co-culture with Nalm6 cells; settings: co-culture with Nalm6
In short: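 Read-out is % GFP-positive cells by flow cytometry after ~4–18 h co-culture (E:T ≈1:2) of target lines with SAR-transduced, puromycin/blasticidin-selected JNG cells. Grades +/-, +, 2+…5+ correspond to approximately 5%, 10%, 20%, 30%, 40%, 50% GFP+ over parental JNG controls.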

| Molecule | NFAT-GFP ASSAY: Raji (RAJI cells; JNG cells expressing construct, co-culture with Raji) | NFAT-GFP ASSAY: Raji-CD19-KO (RAJI-CD19-KO cells) | NFAT-GFP ASSAY: L363 (L363 cells; co-culture with L363) | GFP induction / activity (RAJI cells; co-culture with RAJI cells) | GFP induction / activity (RAJI-CD19-KO cells; co-culture with RAJI-CD19-KO cells) | GFP induction / activity (L363 cells; co-culture with L363 cells) | NFAT-GFP ASSAY: Nalm6 (Nalm6 cells) |
| --- | --- | --- | --- | --- | --- | --- | --- |
| 22131 (protein) MALPVTALLLPLALLLHAARPACEVQLLESGGGLIQPGGSLRLSCAASGFTFSSHAMTWVRQAPGKGLEWVSAISGSGDYTHYADSVKGRFTISRDNSKNTVYLQMNSLRAEDSAVYYCAKDEDGGSLLGHRGQGTLVTVSSGTGGGGSGGGGSGGGGSEFDIQMTQSPSSLSASVGDRVTITCKASDHINNWLAWYQQKPGQAPKLLIYGATTLETGVPSRFSGSGSGTDYTLTISSLQPEDFATYYCQQSWNTPWTFGQGTKLEIKRLEDLKNVFPPEVAVFEPSKAEIAHTQKATLVCLATGFYPDHVELSWWVNGKEVHSGVCTDPQPLKEQPALNDSRYCLSSRLRVSATFWQNPRNHFRCQVQFYGLSENDEWTQDRAKPVTQIVSAEAWGRADCGITSASYHQGVLSATILYEILLGKATLYAVLVSALVLMAMVKRKDSRGRAKRSGSGATNFSLLKQAGDVEENPGPTSATMDWIWRILFLVGAATGAHSGPQVQLQESGGGLAQAGGSLRLSCAASGRTFSMGWFRQAPGKEREFVAAITYSGGSPYYASSVRGRFTISRDNAKNTVYLQMNSLKPEDTAVYYCAANPTYGSDWNAENWGQGTQVTVSSGSGGGGSGGGGSGGGGSFEQVQLQQPGAELVKPGASVKMSCKASGYAFSSYWINWMKQKPGQGLEWIGQIYPGDGDTNYNGKFKGRATLTADTSSSTAYMQLSSLTSEDSAVYFCARSITTVVGCAMDYWGQGTSVTVSSTRIQNPDPAVYQLRDSKSSDKSVCLFTDFDSQTNVSQSKDSDVYITDKCVLDMRSMDFKSNSAVAWSNKSDFACANAFNNSIIPEDTFFPSSDVPCDVKLVEKSFETDTNLNFQNLSVIGFRILLLKVAGFNLLMTLRLWSSRAKRSGSGVKQTLNFDLLKLAGDVESNPGPSRGHMTEYKPTVRLATRDDVPRAVRTLAAAFADYPATRHTVDPDRHIERVTELQELFLTRVGLDIGKVWVADDGAAVAVWTTPESVEAGAVFAEIGPRMAELSGSRLAAQQQMEGLLAPHRPKEPAWFLATVGVSPDHQGKGLGSAVVLPGVEAAERAGVPAFLETSAPRNLPFYERLGFTVTADVEVPEGPRTWCMTRKPGA | 4+ (refer to approximately 5%, 10%, 20%, 30%, 40% and 50% GFP positive cells) | 5+ (refer to approximately 5%, 10%, 20%, 30%, 40% and 50% GFP positive cells) | 5+ (refer to approximately 5%, 10%, 20%, 30%, 40% and 50% GFP positive cells) |  |  |  |  |
| CD8SP-BCMA-FHVH-93-G4S-TCR-Vg9-F-P2A-IgHSP-CD20-vHH2-HCD25-G4S-TCR-Vd2-F-F2A-PAC (protein) MALPVTALLLPLALLLHAARPACEVQLLESGGGLIQPGGSLRLSCAASGFTFSSHAMTWVRQAPGKGLEWVSAISGSGDYTHYADSVKGRFTISRDNSKNTVYLQMNSLRAEDSAVYYCAKDEDGGSLLGHRGQGTLVTVSSGTGGGGSGGGGSGGGGSEFAGHLEQPQISSTKTLSKTARLECVVSGITISATSVYWYRERPGEVIQFLVSISYDGTVRKESGIPSGKFEVDRIPETSTSTLTIHNVEKQDIATYYCALWEAQQELGKKIKVFGPGTKLIITDKQLDKQLDADVSPKPTIFLPSIAETKLQKAGTYLCLLEKFFPDVIKIHWQEKKSNTILGSQEGNTMKTNDTYMKFSWLTVPEKSLDKEHRCIVRHENNKNGVDQEIIFPPIKTDVITMDPKDNCSKDANDTLLLQLTNTSAYYMYLLLLLKSVVYFAIITCCLLRRTAFCCNGEKSRAKRSGSGATNFSLLKQAGDVEENPGPTSATMDWIWRILFLVGAATGAHSGPQVQLQESGGGLAQAGGSLRLSCAASGRTFSMGWFRQAPGKEREFVAAITYSGGSPYYASSVRGRFTISRDNAKNTVYLQMNSLKPEDTAVYYCAANPTYGSDWNAENWGQGTQVTVSSGSGGGGSGGGGSGGGGSFEAIELVPEHQTVPVSIGVPATLRCSMKGEAIGNYYINWYRKTQGNTMTFIYREKDIYGPGFKDNFQGDIDIAKNLAVLKILAPSERDEGSYYCACDTLGMGGEYTDKLIFGKGTRVTVEPRSQPHTKPSVFVMKNGTNVACLVKEFYPKDIRINLVSSKKITEFDPAIVISPSGKYNAVKLGKYEDSNSVTCSVQHDNKTVHSTDFEVKTDSTDHVKPKETENTKQPSKSCHKPKAIVHTEKVNMMSLTVLGLRMLFAKTVAVNFLLTAKLFFLRAKRSGSGVKQTLNFDLLKLAGDVESNPGPSRAHMTEYKPTVRLATRDDVPRAVRTLAAAFADYPATRHTVDPDRHIERVTELQELFLTRVGLDIGKVWVADDGAAVAVWTTPESVEAGAVFAEIGPRMAELSGSRLAAQQQMEGLLAPHRPKEPAWFLATVGVSPDHQGKGLGSAVVLPGVEAAERAGVPAFLETSAPRNLPFYERLGFTVTADVEVPEGPRTWCMTRKPGA |  |  |  | robust induction of GFP | robust induction of GFP | robust induction of GFP |  |
| 22201 (protein) MALPVTALLLPLALLLHAARPACEVQLLESGGGLIQPGGSLRLSCAASGFTFSSHAMTWVRQAPGKGLEWVSAISGSGDYTHYADSVKGRFTISRDNSKNTVYLQMNSLRAEDSAVYYCAKDEDGGSLLGHRGQGTLVTVSSGTGGGGSGGGGSGGGGSEFAGHLEQPQISSTKTLSKTARLECVVSGITISATSVYWYRERPGEVIQFLVSISYDGTVRKESGIPSGKFEVDRIPETSTSTLTIHNVEKQDIATYYCALWEAQQELGKKIKVFGPGTKLIITDKQLDKQLDADVSPKPTIFLPSIAETKLQKAGTYLCLLEKFFPDVIKIHWQEKKSNTILGSQEGNTMKTNDTYMKFSWLTVPEKSLDKEHRCIVRHENNKNGVDQEIIFPPIKTDVITMDPKDNCSKDANDTLLLQLTNTSAYYMYLLLLLKSVVYFAIITCCLLRRTAFCCNGEKSRAKRSGSGATNFSLLKQAGDVEENPGPTSATMDWIWRILFLVGAATGAHSGPQVQLQESGGGLAQAGGSLRLSCAASGRTFSMGWFRQAPGKEREFVAAITYSGGSPYYASSVRGRFTISRDNAKNTVYLQMNSLKPEDTAVYYCAANPTYGSDWNAENWGQGTQVTVSSGSGGGGSGGGGSGGGGSFEAIELVPEHQTVPVSIGVPATLRCSMKGEAIGNYYINWYRKTQGNTMTFIYREKDIYGPGFKDNFQGDIDIAKNLAVLKILAPSERDEGSYYCACDTLGMGGEYTDKLIFGKGTRVTVEPRSQPHTKPSVFVMKNGTNVACLVKEFYPKDIRINLVSSKKITEFDPAIVISPSGKYNAVKLGKYEDSNSVTCSVQHDNKTVHSTDFEVKTDSTDHVKPKETENTKQPSKSCHKPKAIVHTEKVNMMSLTVLGLRMLFAKTVAVNFLLTAKLFFLRAKRSGSGVKQTLNFDLLKLAGDVESNPGPSRAHMTEYKPTVRLATRDDVPRAVRTLAAAFADYPATRHTVDPDRHIERVTELQELFLTRVGLDIGKVWVADDGAAVAVWTTPESVEAGAVFAEIGPRMAELSGSRLAAQQQMEGLLAPHRPKEPAWFLATVGVSPDHQGKGLGSAVVLPGVEAAERAGVPAFLETSAPRNLPFYERLGFTVTADVEVPEGPRTWCMTRKPGA |  | 2+ (refer to approximately 5%, 10%, 20%, 30%, 40% and 50% GFP positive cells) |  |  |  |  | +/- (refer to approximately 5%, 10%, 20%, 30%, 40% and 50% GFP positive cells) |
